Values belong to the binder of their own block, whether it stands above or below them.
Tests used:
[1] = target: T1, MUC1 100mer vaccine peptide (Homo sapiens, UniProt P15941); assay: SPR; Biacore T200; Fab captured at low density (RU < 50) on a CM5 chip coated with anti-human Fab capture kit; serially diluted 100mer peptide as analyte; 'Steady State' in Table 1 in place of rate constants; conditions: both partners purified
T1 construct: 5 copies of the unglycosylated 20mer tandem repeat of the MUC1 VNTR region, human; 100 aa, 5 tandem repeats of 20 aa; unglycosylated; also called 100mer MUC1 peptide; MUC1 VNTR 100mer

[2] = target: T1, MUC1 100mer vaccine peptide
Target sequence in this assay (P15941 136-235): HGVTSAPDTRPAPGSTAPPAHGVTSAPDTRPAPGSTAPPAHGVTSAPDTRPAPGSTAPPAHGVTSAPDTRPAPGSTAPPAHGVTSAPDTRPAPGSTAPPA

MUC1 VNTR 25mer peptide = target: T2, MUC1 VNTR 25mer peptide (Homo sapiens); assay: SPR; Biacore T200; whole IgG captured on a CM5 chip coated with anti-human IgG capture antibody; serially diluted 25mer peptide as analyte; 1:1 model; conditions: both partners purified
T2 construct: MUC1 VNTR, human; one repeat plus 5 amino acids from the next repeat; also called 25mer MUC1 peptide

[3] = target: T1, MUC1 100mer vaccine peptide; assay: SPR; Biacore T200; Fab captured at low density (RU < 50) on a CM5 chip coated with anti-human Fab capture kit; serially diluted 100mer peptide as analyte; kinetic analysis, 1:1 model; conditions: both partners purified

T2 sequence (peptide, as listed by the source): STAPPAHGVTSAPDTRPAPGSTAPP

B1: H4K10 Fab (Fab, V domains shown)
VH: QLQLQESGPGLVKPSETLSLTCTVSGGSISSSRYYWGWIRQPPGKGLEWIGSIYYSGSTYYNPSLKSRVTISVDTSNNQFSLKLTSVTAADTAVYYCARLPESGGYSGWFDPWGQGTLVTVSS
VL: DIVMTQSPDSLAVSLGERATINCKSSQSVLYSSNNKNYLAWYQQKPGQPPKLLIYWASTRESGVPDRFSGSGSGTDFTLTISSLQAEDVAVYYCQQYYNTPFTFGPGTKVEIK
Kd [1]: 5310 nM

B2: H4K11 Fab (Fab, V domains shown)
VH: QLQLQESGPGLVKPSETLSLTCTVSGGSISSSRYYWGWIRQPPGKGLEWIGSIYYSGSTYYNPSLKSRVTISVDTSNNQFSLKLTSVTAADTAVYYCARLPESGGYSGWFDPWGQGTLVTVSS
VL: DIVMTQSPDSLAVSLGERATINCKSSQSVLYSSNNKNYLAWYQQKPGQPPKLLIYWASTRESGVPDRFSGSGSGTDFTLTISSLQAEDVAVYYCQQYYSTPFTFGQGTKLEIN
Kd [1]: 15700 nM

B3: H16K6 (antibody, V domains shown)
VH: QVQLVESGGGLVKPGGSLRLSCAASGFTFSDYYMSWIRQAPGKGLEWVSYISSSGTTKYYADSVKGRFTISRDNAKNSLYLQMNSLRAEDTAVYYCVRENLGYCSGGSCFYYYYMDVWGKGTTVTVSS
VL: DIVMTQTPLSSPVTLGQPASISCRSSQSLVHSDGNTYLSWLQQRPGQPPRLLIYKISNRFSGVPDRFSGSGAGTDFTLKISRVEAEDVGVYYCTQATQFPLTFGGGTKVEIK
binding result [2]: binds

B5: H14K6 Fab (Fab, V domains shown)
VH: QVQLVESGGGLVKPGGSLRLSCAASGFTFSDYYMSWIRQAPGKGLEWVSYISSSGSTIYYADSVKGRFTISRDNAKNSLYLQMNSLRAEDTAVYYCARERIGYCSGGSCYYYYYMDVWGKGTTVTVSS
VL: not shown
Kd [3]: 0.13 nM
koff [3]: 0.000346 s⁻¹
kon [3]: 2.67e+06 M⁻¹ s⁻¹

Second part, the binder after the results:

Kd (MUC1 VNTR 25mer peptide): 27.2 nM
koff (MUC1 VNTR 25mer peptide): 0.00123 s⁻¹
kon (MUC1 VNTR 25mer peptide): 45300 M⁻¹ s⁻¹
B4: H14K6 whole IgG (antibody, V domains shown)
VH: QVQLVESGGGLVKPGGSLRLSCAASGFTFSDYYMSWIRQAPGKGLEWVSYISSSGSTIYYADSVKGRFTISRDNAKNSLYLQMNSLRAEDTAVYYCARERIGYCSGGSCYYYYYMDVWGKGTTVTVSS
VL: not shown

Kd [3]: 0.555 nM
koff [3]: 0.000453 s⁻¹
kon [3]: 817000 M⁻¹ s⁻¹
B6: H19K15 Fab (Fab, V domains shown)
VH: QVQLVESGGGLVKPGGSLRLSCAASGFIFSDYYMSWIRQAPGKGLEWVSYISSSGTTKYYADSVKGRFTISRDNAKNSLYLQMNSLRAEDTAVYYCVREDIGYCSGGSCFYYYYMDVWGKGTTVTVSS
VL: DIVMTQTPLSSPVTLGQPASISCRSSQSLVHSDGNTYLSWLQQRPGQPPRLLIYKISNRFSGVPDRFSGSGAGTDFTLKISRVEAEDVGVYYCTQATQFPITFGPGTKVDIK

kon (MUC1 VNTR 25mer peptide): 8600 M⁻¹ s⁻¹
B7: H19K15 whole IgG (antibody, V domains shown)
VH: QVQLVESGGGLVKPGGSLRLSCAASGFIFSDYYMSWIRQAPGKGLEWVSYISSSGTTKYYADSVKGRFTISRDNAKNSLYLQMNSLRAEDTAVYYCVREDIGYCSGGSCFYYYYMDVWGKGTTVTVSS
VL: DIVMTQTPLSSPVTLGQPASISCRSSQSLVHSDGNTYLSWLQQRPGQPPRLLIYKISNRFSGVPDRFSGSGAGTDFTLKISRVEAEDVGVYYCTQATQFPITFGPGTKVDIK

— article PMC4992835, “Antibodies elicited by the first non-viral prophylactic cancer vaccine show tumor-specificity and immunotherapeutic potential” (Scientific Reports, 2016)
